What was measured:
[1] = target: T1, NTCP (Homo sapiens, UniProt Q14973); assay: Binding of FITC-labeled polypeptide to NTCP-293 cells; conditions: FITC label; for binding to NTCP-293 cells: 293 cells transfected with NTCP; for binding to 293 cells not transfected with NTCP (BLANK-293): control cells
T1 construct: expressed in transfected cells; host or cells: 293 (HEK293) cells
T1 sequence (Q14973 1-349): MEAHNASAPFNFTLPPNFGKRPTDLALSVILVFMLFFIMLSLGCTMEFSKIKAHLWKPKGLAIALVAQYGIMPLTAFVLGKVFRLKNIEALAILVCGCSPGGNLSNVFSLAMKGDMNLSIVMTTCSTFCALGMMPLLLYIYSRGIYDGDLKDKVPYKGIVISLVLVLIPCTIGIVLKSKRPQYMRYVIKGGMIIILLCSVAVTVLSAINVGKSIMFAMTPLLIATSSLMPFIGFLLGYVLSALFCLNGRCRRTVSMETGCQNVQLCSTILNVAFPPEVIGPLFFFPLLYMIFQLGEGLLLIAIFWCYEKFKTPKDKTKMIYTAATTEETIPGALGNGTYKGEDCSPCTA
Text: NTCP-293 cell line was formed by transfecting non-hepatocyte-derived 293 cells with NTCP.

[2] = target: sodium taurocholate cotransporting polypeptide (NTCP) expressed on transfected 293 cells (NTCP-293) (human) (UniProt Q14973); assay: cell-based or functional assay
[3] = listed as hepalatide labeled with FIFC

Chain of hepalatide (P31868 13-59): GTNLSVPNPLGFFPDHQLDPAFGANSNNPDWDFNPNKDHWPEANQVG

Substance	binding to NTCP-293 cells [1]	binding to NTCP-293 cells [1, 3]	binding to 293 cells not transfected with NTCP (BLANK-293) [1]	binding to 293 cells not transfected with NTCP (BLANK-293) [1, 3]	IC50 of inhibition of NTCP-293 uptake of 3H-labeled bile acid (3H-TA) [2]
FITC-hepalatide: hepalatide (Cmyr-47) fluorescently labeled by FITC at amino acid K at position 37	bound to NTCP-293 cells	bind to NTCP expressing HEK293 cells	did not bind to 293 cells	do not bind to control HEK293 cells	–
hepalatide (peptide)	–	–	–	–	0.839 µg/mL
